Measured values reported in the DeepSol protein solubility set.

Assay: soluble on expression in E. coli; label from the status in PepcDB or PDB records

Sequence	soluble on expression in E. coli
MGSDKIHHHHHHIFSSCTDDFEKLNTSNIQVDPADLPFAAQCTEPMTYCYPPQQNMFQFWTNLTIDLYGGYFMTPNGNFTNGDMGENRGHSGGMYENYYLHIFNNTRRIIAQCDASGERGLSGVMRIVQAYGTLMTTDAYGPIPYSSILSGENEVYFEFDSQKDLYKAMLEDLSTAITDISAMGADEIAKLKSFDCWCNGDKDLWVKIANTMKLRMALRLSKRETEAGNAGMNLKAIATEAAQNTLATVNKDILIDKSLENEMWLMFNWGDCGFNANLVTIMSGTKDPRQPLYMTLNTGDIKNEAGTTTVAANSQYLGIRFASGLPAKPNSWGNFSGWIQGNNGSSYSMPLPIMKAAEAYFLLAEAKLRWDIGSESVKNLYENGIRVSMTNELAYRGAYAGIKEYPEGAVDAYINGTSTQIDYTDPIKAELSTPAVNKLSVKWDESASNEEKLERIITQKWLALFPLSTEGWAEQRRTGYPRFFPAFVNESNGAVNTEEGVRRVIYSSQAYDANAKGVEGGIKLLDEENSSKFGISGDKGGTHLWWDNADKGNF	not soluble
MGSDKIHHHHHHIWCTPTRLARPDRRGKAIRTIGMADGTIPMNAKPTEEISVREVFGIDTPMLVKGFAERSDRVPEIDQTYKFDPDTTLAILAGFSHNRRVMVQGYHGTGKSTHIEQVAARLNWPCVRVNLDSHISRIDLIGKDAIKLRDGKQVTEFHEGILPWALRNPVAIVFDEYDAGRADVMFVIQRVLEHDGKLTLLDQNEIITPNPCFRLFATANTVGLGDTTGLYHGTQQINQAQMDRWSLVATLNYLSHDAETMIVLSKAPHYNTEKGRKQVSQMVTVADLTRTAFMNGDLSTVMSPRTVINWAQNAEIFRDVGYAFRLTFLNKCDELERQTVAEFYQRCFDEELPESAASTSLG	not soluble
MGSDKIHHHHHHKDNTKVIAHRGYWKTEGSAQNSIRSLERASEIGAYGSEFDVHLTADNVLVVYHDNDIQGKHIQSCTYDELKDLQLSNGEKLPTLEQYLKRAKKLKNIRLIFELKSHDTPERNRDAARLSVQMVKRMKLAKRTDYISFNMDACKEFIRLCPKSEVSYLNGELSPMELKELGFTGLDYHYKVLQSHPDWVKDCKVLGMTSNVWTVDDPKLMEEMIDMGVDFITTDLPEETQKILHSRAQ	not soluble
MGSDKIHHHHHHKEKKADTYVTKVTDLTGEEEQVLKLEYDRDGKIIKYGDTPVRYEGDQITIGQMNCLNTGNKLCNVTFQIGKGKARESRARCMLKVGEEVYEADKQTVYDYKGDTIFINSDYRATSDYRFLKKVQGKYVFDQLGRLKEVMTVFTEANDSVSSCHTYYNYDNNINYQANLNLQAYVIDYDGVDSFFYFLLNLGQLRNRTALPNDIGYCMNHGLSTYNVHANYRLDDENPVRIEVLYNYTKLLSRIDLSYNPLN	not soluble
MGSDKIHHHHHHLAIFIQYIDTLKLVSIGKNDMYSIEQLEAFVATVKTGSFSSAARALNKAQSVISQHVINLEIDCNSELFDRSGRYPQLTPAGKKLLPHAQVLLSQHQRLRDCAQSLDQQAISELTIGLDEGIPLQKLFNIINELEAKFPTITLEFLTASSIDIIDMIDTERAVTGIIFSELTIPAHIDFESIGSIKFDMYVASTHLLAQQIYDNLAHLKLHRQLLIRSRNTKSSSFQFAISPDVWYADNYYILLELALQGHGWCLLPNHIANHYVDSGQLVMLPSEFKEIGWQANVDVIQHHRYSHEPVFKQLRHSLRQLLTYSA	not soluble
MGSDKIHHHHHHLAKIKTKFVCQSCGTESPKWMGRCSGCGEWNTMVEEVVEEKKARRGSAFVHTTTKQLKPERLSNILSQEESRVFTGSGEFDRVLGGGIVPGSMVLVGGDPGIGKSTILLQTSARLAARGEKVLYISGEESLKQTKLRAERLGLPTQDLFVLSETDMNMIERVVDEENPAFLIIDSIQTVYIDEIQSAPGSVTQVRECTAMLMKIAKSRGIAIFIVGHVTKQGSIAGPRLLEHMVDAVLYFEGERHHTFRILRAVKNRFGSTNEIGIFEMRESGLEEVLNPSEIFLEERTSGVSGSTIVASMEGTRTVLVELQALISPTSFGNPRRMATGIDQNKVALLMAVLEKRSGLLLQTQDAYLKAAGGVKLDEPAIDLAICVAVASSFRDKPTRPTDVVIGEVGLTGEVRRVSRIEQRVAEAAKLGFTRAIIPKNNLGGWTYPPGITVIGVESVDEALRETIPF	not soluble
MGSDKIHHHHHHLAKNNPISIPVSELRLGLTVKLPLSWTEHPFLINRIELKEQAQIEMIRGLKVQHVLVLAGAELLDEDVPKEEVPIEDDGFDEDMPERDVKREARVAIRKSQKRFLDCVNDSRSLVGKLGSDPEGAYRLSATLVEQMLEHLFEQEAAYLALVSAGEQGASVTQHGISVAVLSLMIAKSMDMPKKDMRDIALGALLHDIGKLRVPDNIRRKRGPLTTQEINFMNQHPNYGHEMLSRSGLFPEEVLHIIRHHHEFIDGTGFPGGLNGKKIPRTTQIVTLANDFEDQMTSHSIASPQVALGYLFKHRVGKHDEALIATLVKVLRHLSARYSGASHRRFFGKGDDDHPGSQAASGVGLQRRRRRPRPQNLDE	not soluble
MGSDKIHHHHHHLEELDQMRAVFGTRPWREPTDTPAVISVSNFKGGVGKSTVALHLAQHFAIHGYRVLFIDCDSQASSTMMFGYRPDVDLTEDDTLYGHFHNPELLGVRSIIRKTHFFGLDLIPANLKLYNLEYEIAGYLAQNQNFDIIDLIAEAIDTVVDDYDVVVMDPPPALGMVSMAVLQAANAMVIPVPPSVIDFASTVSFIDMARTTMKQLEQIAGRVKPAYNFIRLVGSRVDESKSMHREILSMMRQVFGGSMATSVLKTSAEIDNASSRMKTVFELDRPVTSHEVHNRCMKHLSDVCREIETDVLRTWASRAGEAV	not soluble
MGSDKIHHHHHHLEQQAIVANNLANASTTGFRAQLATFRAVPMSFGDGSSINDNTTRTFVLSSTPGADYTPGPIQQTGNPLDVAIQGPGWLAVQTADGGEAYTRAGNLHIDENGQLVNATNQVVLGNGGPVSVPPGAEITIGKDGTVSALTPGDPPTAVVTVDQLKLVNPDPQTMTRGDDGLFRTGDGNPADADPTVTLAPASLEGSNVNPVSAMVSMITNARQFQMQTKLLESADKNDQSANQLLSFS	not soluble
MGSDKIHHHHHHLFTSLVKQAEEMGLLDLSSVAIDATKVEAYEKSVPRKNIIQNGNAADWGIKSDTNGNPIKWFGYKLHIGTDVRSGLPIAMKVTPANYSDSSVALELVEKCCANTQSKIVYFLMDAGYDHREIYSVIRDKYHAQAIIALNKRGAKQPPEGFDWDGTPICSARYRMVYWGSYQGVNKFRCPHIMGKCDCPFGSAWCSDSNYGMVVKTKVKDDPRLFSSPHRGSANWQKQYNLRTYSERCFSRFKENLGLEDGLNVRKITKVETHAYLCAITMIAAVIAINQDSSTRSSAA	not soluble
MGSDKIHHHHHHLGFILDKSGLIPPSIDFPELIKAGREQLHRETDYEQEARHLDMFFKLMAGDKCFEVPRINQEFTTDKTLAMEFKEGVTIDQIVSANYNVKNKAVLNLIDLFFRELFEFNLIQSDPNYANFLFDEKNGKIILLDFGATIPVSSDTLAKFKALFNETLGQNKKSVENAMYQLGILDKGLPSHILNELTDIYWDSTEPIRKNKMFDFGNSNILERMQELSSEIIVHRKKIKIPPFDILSIQRKIGGIFLLARRFEAKINLNKIFEK	not soluble
MGSDKIHHHHHHLILNWPQSDSEHLMVSSEQMQNIEKEMFSMGMPVEALMEKVGIGISSWILDRHGLIENGAIVLVGPGHNGGDGLVVARELYMAGVDISIWCPFPLKKQLTQKHFHYAMQIGIENLERKPDSNSDLLWIEALFGLGQSRIISDEIIRLLNSKKTFSPEKLISIDVPAGLDSDNGNIVSNTSCKASSSLTLGLFKSGLIQDSAIDYVGNLERVDIGIPDKILAGFPETQPLRISFSDLSTFVWPMLSKSKSKYQRGRVLVIAGSEKYRGAASLALNGALASGVGSVSAFLPNSVSSALWITHPEVLLLGDLTAFQDGSSDFSKVLNEVDLNRFDSILLGPGLGIADEKDCFGSDLQDFKGLLVLDADAINRLSITSKGWEWLNDREGPTWLTPHLEEFKRLFPLIDCSNPLKAGIEAAKTCSSSVLLKCAHSVISDPEGKTWQIGQVNSSVARTGLGDVLAGFVSGMGASGLASDKKLDTSLLAASALMHAYAGAFSIKGSTASTICTFLGELIKKEST	not soluble
MGSDKIHHHHHHLIPKIIHYCWFGNSELPDIVKDCISSWKKYCPEYEIKRWDESNYDVSKNAYTRAAYKNKKWAFLTDYVRLDVLYNEGGVYMDTDVKLIRSLDPLIDKGPFMSFEKRGRVNTGVGFACEAGNPIVKENKDYYENNLFVDENGNFEPEICVKITTKILIKHGLNYTENVVQKVDGLIVYSSDYFSPKKLGTEKITLTSNTYGIHLFASSWYKGSKIYKKMKYHLIPLKEFIKYKILSKKLYE	not soluble
